Molecular target: RAS-AMG510 (human;)
Assay: cell binding (Raji), flow cytometry; apparent KD

| Kd | Binder |
| --- | --- |
| 57 nM | AMRA3-18 hIgG1 (antibody, V domains shown) VH: EVQLVESGGGLVQPGGSLRLSCAASGFTVSYSSIHWVRQAPGKGLEWVASISSSSGYTSYADSVKGRFTISADTSKNTAYLQMNSLRAEDTAVYYCARYAWWAHGLDYWGQGTLVTVSS VL: DIQMTQSPSSLSASVGDRVTITCRASQSVSSAVAWYQQKPGKAPKLLIYSASSLYSGVPSRFSGSRSGTDFTLTISSLQPEDFATYYCQQGSYTYRLITFGQGTKVEIKR |
| 20 nM | AMRA3-7 hIgG1 (antibody, V domains shown) VH: EVQLVESGGGLVQPGGSLRLSCAASGFTFSSYSIHWVRQAPGKGLEWVASIYSSYGYTSYADSVKGRFTISADTSKNTAYLQMNSLRAEDTAVYYCARGGWYPAMDYWGQGTLVTVSS VL: DIQMTQSPSSLSASVGDRVTITCRASQSVSSAVAWYQQKPGKAPKLLIYSASSLYSGVPSRFSGSRSGTDFTLTISSLQPEDFATYYCQQISYVYSLITFGQGTKVEIKR |
| 45 nM | AMRA11-2 hIgG1 (antibody, V domains shown) VH: EVQLVESGGGLVQPGGSLRLSCAASGFTISSSSIHWVRQAPGKGLEWVASISSYSSSTYYADSVKGRFTISADTSKNTAYLQMNSLRAEDTAVYYCARYPYGWGWGGSGLDYWGQGTLVTVSS VL: DIQMTQSPSSLSASVGDRVTITCRASQSVSSAVAWYQQKPGKAPKLLIYSASSLYSGVPSRFSGSRSGTDFTLTISSLQPEDFATYYCQQSSSSLITFGQGTKVEIKR |

From patent US20240327542A1 (published 2024)
